Test results reported in patent US6635743.

T1: TR6-(His), recombinant TR6 protein with hexa-histidine at the C-terminus (human, UniProt O95407 30-300)
T1 construct: also called DcR3; TR6 (DcR3)
T1 sequence: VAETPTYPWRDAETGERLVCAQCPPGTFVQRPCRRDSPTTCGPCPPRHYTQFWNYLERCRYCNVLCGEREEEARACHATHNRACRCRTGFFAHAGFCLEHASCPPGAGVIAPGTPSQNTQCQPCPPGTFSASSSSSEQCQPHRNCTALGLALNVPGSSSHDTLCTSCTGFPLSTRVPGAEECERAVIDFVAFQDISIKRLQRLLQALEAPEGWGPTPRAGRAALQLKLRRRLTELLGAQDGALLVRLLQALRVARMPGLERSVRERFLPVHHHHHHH

T2: TR2 on the surface of MDA-MB-231 and HT-29 cells and of T cells (human, UniProt Q92956 39-283)
T2 construct: whole, on cells; The tumour cells carry both LTβR and TR2; also called HVEM; ATAR
T2 sequence (looked up): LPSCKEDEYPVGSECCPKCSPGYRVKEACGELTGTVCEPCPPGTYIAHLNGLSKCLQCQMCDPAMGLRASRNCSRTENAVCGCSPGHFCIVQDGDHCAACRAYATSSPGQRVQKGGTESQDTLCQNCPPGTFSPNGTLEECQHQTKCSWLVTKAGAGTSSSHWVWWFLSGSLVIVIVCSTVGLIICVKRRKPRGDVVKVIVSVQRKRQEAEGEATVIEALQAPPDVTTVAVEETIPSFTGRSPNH

T3: TNFRI (UniProt P19438 30-211, limits assumed)
T3 construct: also called TNFR1
T3 sequence (looked up): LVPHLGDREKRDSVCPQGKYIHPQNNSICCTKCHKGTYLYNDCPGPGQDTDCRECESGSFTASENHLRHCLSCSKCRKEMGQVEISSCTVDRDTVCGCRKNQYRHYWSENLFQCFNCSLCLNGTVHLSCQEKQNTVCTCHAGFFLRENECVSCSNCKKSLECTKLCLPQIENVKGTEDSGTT

T4: DR3 (UniProt Q93038 25-199, limits assumed)
T4 construct: also called TRAMP; APO-3
T4 sequence (looked up): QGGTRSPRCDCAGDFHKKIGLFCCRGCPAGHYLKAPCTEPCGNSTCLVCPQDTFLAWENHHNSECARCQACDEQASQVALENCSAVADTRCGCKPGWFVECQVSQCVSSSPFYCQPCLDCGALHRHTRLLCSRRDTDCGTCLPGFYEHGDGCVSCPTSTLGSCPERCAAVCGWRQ

T5: Fas (UniProt P25445 26-173, limits assumed)
T5 construct: also called CD95; APO-1
T5 sequence (looked up): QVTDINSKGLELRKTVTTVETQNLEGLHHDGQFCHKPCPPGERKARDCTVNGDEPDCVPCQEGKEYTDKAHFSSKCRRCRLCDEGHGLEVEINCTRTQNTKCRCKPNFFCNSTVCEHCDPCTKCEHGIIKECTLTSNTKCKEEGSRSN

T6: DR4 (UniProt O00220 24-239, limits assumed)
T6 construct: also called TRAIL-R1; APO-2
T6 sequence (looked up): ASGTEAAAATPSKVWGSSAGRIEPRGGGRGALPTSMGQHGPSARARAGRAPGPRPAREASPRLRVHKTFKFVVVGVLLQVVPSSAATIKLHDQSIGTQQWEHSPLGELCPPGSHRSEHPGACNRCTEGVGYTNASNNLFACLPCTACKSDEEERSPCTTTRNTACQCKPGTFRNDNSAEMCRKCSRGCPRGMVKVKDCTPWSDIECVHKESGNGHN

B1: full-length AIM II (LIGHT) expressed on the cell surface (ligand)
chain: MEESVVRPSVFVVDGQTDIPFTRLGRSHRRQSCSVARVGLGLLLLLMGAGLAVQGWFLLQLHWRLGEMVTRLPDGPAGSWEQLIQERRSHEVNPAAHLTGANSSLTGSGGPLLWETQLGLAFLRGLSYHDGALVVTKAGYYYIYSKVQLGGVGCPLGLASTITHGLYKRTPRYPEELELLVSQQSPCGRATSSSRVWWDSSFLGGVVHLEAGEEVVVRVLDERLVRLRDGTRSYFGAFMV
B2: lymphotoxin beta receptor (LTβR)-Fc fusion protein (Fc fusion, human, UniProt P36941 31-227, looked up)
chain: QAVPPYASENQTCRDQEKEYYEPQHRICCSRCPPGTYVSAKCSRIRDTVCATCAENSYNEHWNYLTICQLCRPCDPVMGLEEIAPCTSKRKTQCRCQPGMFCAAWALECTHCELLSDCPPGTEAELKDEVGKGNNHCVPCKAGHFQNTSSPSARCQPHTRCENQGLVEAAPGTAQSDTTCKNPLEPLPPEMSGTMLM
notes: extracellular domain; also called sLTβR-Fc; lymphotoxin-β receptor-Fc fusion protein; not shown: IgG1 Fc from vector pUC19-IgG1-Fc
B3: natural processed form of AIM II purified from conditioned media of MCA-38 cells transfected with full length AIM II cDNA (residues 83-240) (ligand)
chain: LIQERRSHEVNPAAHLTGANSSLTGSGGPLLWETQLGLAFLRGLSYHDGALVVTKAGYYYIYSKVQLGGVGCPLGLASTITHGLYKRTPRYPEELELLVSQQSPCGRATSSSRVWWDSSFLGGVVHLEAGEEVVVRVLDERLVRLRDGTRSYFGAFMV
notes: apparent mass about 21 kDa, said to be consistent with glycosylation; also called MCA-38 AIM II; AIM II (aa 83-240)
B4: Flag-tagged soluble AIM II protein (sAIM II), amino acids 74-240 of AIM II (ligand)
chain: DGPAGSWEQLIQERRSHEVNPAAHLTGANSSLTGSGGPLLWETQLGLAFLRGLSYHDGALVVTKAGYYYIYSKVQLGGVGCPLGLASTITHGLYKRTPRYPEELELLVSQQSPCGRATSSSRVWWDSSFLGGVVHLEAGEEVVVRVLDERLVRLRDGTRSYFGAFMV
notes: also called sLIGHT; AIM II-Flag; not shown: N-terminal FLAG peptide tag from vector pFLAG.CMV-1 (behind the preprotrypsin signal peptide)
B5: HVEM/TR2-Fc fusion protein (Fc fusion, UniProt Q92956 39-202, looked up)
chain: LPSCKEDEYPVGSECCPKCSPGYRVKEACGELTGTVCEPCPPGTYIAHLNGLSKCLQCQMCDPAMGLRASRNCSRTENAVCGCSPGHFCIVQDGDHCAACRAYATSSPGQRVQKGGTESQDTLCQNCPPGTFSPNGTLEECQHQTKCSWLVTKAGAGTSSSHWV
notes: not shown: Fc portion; detected with anti-human IgG

Experiments:
[1] = biological target: T1, TR6-(His), recombinant TR6 protein with …; assay: flow cytometry on AIM II (LIGHT)-transfected HEK 293 EBNA cells, anti-poly(His)6 and FITC anti-mouse IgG
Description: (§1) After selection with Hygromycin B, cells were harvested with 1 mM EDTA in PBS and incubated with TR6-(His), HVEM/TR2-Fc, or LTβR-Fc for 20 minutes on ice. For detecting Fc-fusion protein, cells were stained with FITC-conjugated goat anti-human IgG. To detect TR6 binding, cells were stained with anti-poly(His)_6 and FITC conjugated goat anti-mouse IgG consecutively. The cells were analyzed by FACScan (Becton Dickinson).
(§2) These bindings indicate that TR6 can bind to both soluble and membrane-bound forms of AIM II (LIGHT).

[2] = biological target: B1; assay: flow cytometry on AIM II (LIGHT)-transfected HEK 293 EBNA cells, FITC anti-human IgG
Description: as §1, §2

[3] = biological target: T7, BAP-Flag (negative control) (UniProt P00634 22-471 = phosphatase); assay: BIAcore, LTβR-Fc immobilized, conditioned serum-free media of CHO cells
T7 construct: Tested as conditioned serum-free medium of transfected CHO cells
T7 sequence (P00634 22-471): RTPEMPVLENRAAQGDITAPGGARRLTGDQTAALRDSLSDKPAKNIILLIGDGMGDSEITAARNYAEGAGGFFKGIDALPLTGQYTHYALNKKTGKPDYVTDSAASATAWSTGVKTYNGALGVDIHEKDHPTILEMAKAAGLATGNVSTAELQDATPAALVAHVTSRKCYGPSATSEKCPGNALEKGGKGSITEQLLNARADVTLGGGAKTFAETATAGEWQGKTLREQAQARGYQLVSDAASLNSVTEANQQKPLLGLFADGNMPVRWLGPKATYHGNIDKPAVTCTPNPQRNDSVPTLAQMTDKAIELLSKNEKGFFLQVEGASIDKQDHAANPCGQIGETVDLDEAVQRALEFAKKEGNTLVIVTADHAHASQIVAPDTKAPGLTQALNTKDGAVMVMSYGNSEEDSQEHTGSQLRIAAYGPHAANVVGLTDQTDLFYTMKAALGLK
Description: (§3) CHO cells were transfected with either an AIM II-Flag tag expression vector or an BAP-Flag (negative control). Three days after transfection, AIM II expression was determined using the BIAcore instrument (BIAcore, Inc.) which permits real-time measurements of protein binding events to immobilized AIM II receptor, lymphotoxin-β receptor (BIAcore sensorgram detects binding by changes in refractive index at the surface of the flow cell). A lymphotoxin-β receptor-Fc fusion protein was covalently immobilized to the BIAcore flow cell via amine groups using N-ethyl-N'-(dimethylaminopropyl)carbodiimide/N-hydroxysuccinimide chemistry. Various dilutions of AIM II-Flag and the negative control (BAP-Flag) conditioned serum-free media were applied to the lymphotoxin-β-receptor-derivatized flow cell at 5 µl/min for a total volume of 50 µl. The amount of bound protein was determined after washing the flow cell with HBS buffer (10 mM HEPES, pH 7.4, 150 mM NaCl, 3.4 mM EDTA, 0.005% Surfactant P20). The flow cell surface was regenerated by displacing bound protein by washing with 20 µl of 10 mM HCl.

[4] = biological target: B2; assay: LTβR-Fc affinity column, eluate tested on LTβR BIAcore chip; band of about 21 kDa specifically bound to the column
Description: Conditioned media from the stable transfectants, CHO11 or MCA-38 cells, were filtered, centrifuged at 10,000×g and then passed over an MCIF-Fc affinity column (control column) followed by the LTβR-Fc affinity column (0.2 mL bed volume). The columns were washed with several bed column volumes HEPES buffered saline containing 0.005% Surfactant P-20. Bound protein was eluted with 10 mM HCl (3×0.5 ml fractions) and immediately neutralized with TRIS buffer. The fractions eluted from the LTβR column retained binding to LTβR BIAcore chip, whereas, fractions eluted from the control MCIF-Fc column were negative for binding. The eluted fractions were dried in Spedvac then resuspended in 20 μl water. An aliquot of the eluted protein was analyzed by reducing SDS-PAGE gels and detected by silver staining. A band of approximately ~25 kDa and ~21 kDa was detected specifically bound to the LTβR column from CHO-11 and MCA-38 cell lines. The remaining eluted material was subject to SDS-PAGE and blotted onto PVDF membrane for N-terminal sequence analysis.

[5] = biological target: T1, TR6-(His), recombinant TR6 protein with …; assay: summary of the experiments of Example 13
[6] = biological target: B5; assay: FACS competition, TR2-Fc at 10 µg/ml preincubated with sAIM II
Description: Cells were collected by trypsinization or aspiration, and centrifuged at 1500–2000 rpm for 5 min. The cell pellets were resuspended and washed in 5 ml ice-cold PBS twice. And then, the cells were incubated with Flag-tagged AIM II protein or Abs at 10 μg/ml in the binding buffer (HBSS containing 10% BSA, 20 mM HEPES, pH 7.2, 0.02% NaN₃, and 25 μg/ml normal rat Ig) for 30 min at 4° C. Cells were then washed and stained with phycoerythrin (PE) conjugated to goat anti-mouse IgG at 20 μg/ml as described. To compete for cell surface binding, soluble LTβR-Fc fusion protein, TR2-Fc at 10 μg/ml was preincubated with AIM II for 30 min before adding to cells. Fluorescence was analyzed by a FACscan flow cytometer (Becton Dickinson, Mountain View, Calif.).

[7] = biological target: T8, LTβR on the surface of MDA-MB-231 and HT-29 cells (human, UniProt P36941 31-435); assay: summary of the FACS and cytotoxicity experiments
T8 construct: whole, on cells; The cells carry both LTβR and TR2; also called lymphotoxin β receptor
Description: (§4) FIGS. 8A–8M. Cell surface expression of the LTβR or TR2 by the FACS analyses using LTβR (FIGS. 8A–8D) or TR2 (FIGS. 8E–8H) mAb. […] FACS binding analyses of soluble AIM II protein alone (FIG. 8I) and blocking of a soluble AIM II protein binding by preincubation with the LTβR-Fc fusion protein (FIG. 8J) or TR2-Fc fusion protein (FIG. 8K) in MDA-MB-231 cells. FIG. 8L summarizes the surface expression of LTβR and TR2 in various cell lines. Effects of LTβR-Fc or TR2-Fc fusion protein to block the sAIM II-mediated cytotoxicity in HT-29 cells (FIG. 8M). […] Cells were incubated for five days and the viability of cells was determined by XTT assays.
(§5) A soluble tetrazolium/formazan (XTT) assay for cell growth in a 96-well plate was performed. Cells (2,000–4,000 cells/well) were grown in IMEM medium with 10% FBS or 1% FBS. After four to five days culture, XTT (1.0 mg/ml plus PMS at 1.53 mg/ml) was added to each well and incubated for four hours at 37° C. Absorbance at 450 nm was measured with the Dynatech Model MR700.
(§6) Cells were collected by trypsinization or aspiration, and centrifuged at 1500–2000 rpm for 5 min. The cell pellets were resuspended and washed in 5 ml ice-cold PBS twice. […] Fluorescence was analyzed by a FACscan flow cytometer (Becton Dickinson, Mountain View, Calif.).

[8] = biological target: T2, TR2 on the surface of MDA-MB-231 and …; assay: summary of the FACS and cytotoxicity experiments
Description: as §4, §5, §6

[9] = biological target: B2; assay: BIAcore, LTβR-Fc immobilized by amine coupling, CHO conditioned serum-free media
Description: as §3

TNFRI = biological target: T3, TNFRI; assay: 'in a similar assay'; format not described
DR3 = biological target: T4, DR3; assay: 'in a similar assay'; format not described
Fas = biological target: T5, Fas; assay: 'in a similar assay'; format not described
DR4 = biological target: T6, DR4; assay: in vitro binding assay, not described
DR5 = biological target: T9, DR5 (UniProt O14763 56-210, limits assumed); assay: in vitro binding assay, not described
T9 construct: also called TRAIL-R2

Binder: B1
- binding result [1]: binds

Binder: B2
- binding result [2]: binds
- binding result [3]: no binding

Binder: B3
- binding result [4]: binds

Binder: B4
- binding result [5]: binds
- binding result [6]: binds
- binding result [7]: binds
- binding result [8]: binds
- binding result [9]: binds
- binding result (TNFRI): no binding
- binding result (DR3): no binding
- binding result (Fas): no binding
- binding result (DR4): no binding
- binding result (DR5): no binding

Binder: B5
- binding result [2]: binds
